B1: TPD52L2 (parent)
chain: EAEEEELRAELTKVEEEIVTLRQV

Variants of: B1
Experiment: protein stability index of a GFP-peptide fusion (GPS, HEK-293T) (PSI 1-6); higher = more stable
Conditions: c terminus: a fixed tail appended
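Further: lentivirally expressed fusions sorted by FACS into six bins by GFP to DsRed ratio, PSI derived from sequencing read proportions per bin multiplied by bin number.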

| Variant | protein stability index |
| --- | --- |
| EAEEEELRAELTKVEEEIRTLRQV [V19R] | 3.88 |
| EAEEEELRAELTKVEEEIYTLRQV [V19Y] | 3.71 |
| EAEEEELRAELTKVEEEIATLRQV [V19A] | 3.96 |
| EAEEEELRAELTKVEEEIHTLRQV [V19H] | 3.9 |
| EAEEEELRAELTKVEEEIETLRQV [V19E] | 4.21 |
| EAEEEELRAELTKVEEEIDTLRQV [V19D] | 4.82 |
| EAEEEELRAELTKVEEEILTLRQV [V19L] | 3.69 |
| EAEEEELRAELTKVEEEIKTLRQV [V19K] | 3.89 |
| EAEEEELRAELTKVEEEINTLRQV [V19N] | 4.51 |
| EAEEEELRAELTKVEEEISTLRQV [V19S] | 3.98 |
| EAEEEELRAELTKVEEEIPTLRQV [V19P] | 5.45 |
| EAEEEELRAELTKVEEEIITLRQV [V19I] | 2.96 |
| EAEEEELRAELTKVEEEICTLRQV [V19C] | 3.78 |
| EAEEEELRAELTKVEEEIMTLRQV [V19M] | 3.52 |
| EAEEEELRAELTKVEEEITTLRQV [V19T] | 4.44 |
| EAEEEELRAELTKVEEEIWTLRQV [V19W] | 2.54 |
| EAEEEELRAELTKVEEEIGTLRQV [V19G] | 4.79 |
| EAEEEELRAELTKVEEEIFTLRQV [V19F] | 3.27 |
| EAEEEELRAELTKVEEEIQTLRQV [V19Q] | 3.04 |
| EAEEEELRAELTKVEEEIVTLAQV [R22A] | 4.54 |
| EAEEEELRAELTKVEEEIVTLLQV [R22L] | 3.06 |
| EAEEEELRAELTKVEEEIVTLDQV [R22D] | 3.54 |
| EAEEEELRAELTKVEEEIVTLIQV [R22I] | 2.44 |
| EAEEEELRAELTKVEEEIVTLFQV [R22F] | 2.33 |

| Variant | protein stability index |
| --- | --- |
| EAEEEELRAELTKVEEEIVTLGQV [R22G] | 3.79 |
| EAEEEELRAELTKVEEEIVTLKQV [R22K] | 3.8 |
| EAEEEELRAELTKVEEEIVTLEQV [R22E] | 4.25 |
| EAEEEELRAELTKVEEEIVTLCQV [R22C] | 3.66 |
| EAEEEELRAELTKVEEEIVTLHQV [R22H] | 3.96 |
| EAEEEELRAELTKVEEEIVTTRQV [L21T] | 5.65 |
| EAEEEELRAELTKVEEEIVTMRQV [L21M] | 4.72 |
| EAEEEELRAELTKVEEEIVTKRQV [L21K] | 5.86 |
| EAEEEELRAELTKVEEEIVTIRQV [L21I] | 4.25 |
| EAEEEELRAELTKVEEEIVTQRQV [L21Q] | 5.13 |
| EAEEEELRAELTKVEEEIVTVRQV [L21V] | 5.22 |
| EAEEEELRAELTKVEEEIVTCRQV [L21C] | 4.72 |
| EAEEEELRAELTKVEEEIVTERQV [L21E] | 5.4 |
| EAEEEELRAELTKVEEEIVTYRQV [L21Y] | 3.34 |
| EAEEEELRAELTKVEEEIVTARQV [L21A] | 4.96 |
| EAEEEELRAELTKVEEEIVTWRQV [L21W] | 3.63 |
| EAEEEELRAELTKVEEEIVTRRQV [L21R] | 5.56 |
| EAEEEELRAELTKVEEEIVTDRQV [L21D] | 5.73 |
| EAEEEELRAELTKVEEEIVTGRQV [L21G] | 5.24 |
| EAEEEELRAELTKVEEEIVTSRQV [L21S] | 5.68 |
| EAEEEELRAELTKVEEEIVTFRQV [L21F] | 4.09 |
| EAEEEELRAELTKVEEEIVTNRQV [L21N] | 5.73 |
| EAEEEELRAELTKVEEEIVTHRQV [L21H] | 4.08 |
| EAEEEELRAELTKVEEEIVTPRQV [L21P] | 5.57 |

| Variant | protein stability index |
| --- | --- |
| EAEEEELRAELTKVEEEIVDLRQV [T20D] | 5.3 |
| EAEEEELRAELTKVEEEIVLLRQV [T20L] | 2.91 |
| EAEEEELRAELTKVEEEIVWLRQV [T20W] | 2.99 |
| EAEEEELRAELTKVEEEIVGLRQV [T20G] | 3.86 |
| EAEEEELRAELTKVEEEIVPLRQV [T20P] | 4.98 |
| EAEEEELRAELTKVEEEIVNLRQV [T20N] | 3.34 |
| EAEEEELRAELTKVEEEIVILRQV [T20I] | 3.06 |
| EAEEEELRAELTKVEEEIVFLRQV [T20F] | 2.85 |
| EAEEEELRAELTKVEEEIVALRQV [T20A] | 3.9 |
| EAEEEELRAELTKVEEEIVMLRQV [T20M] | 2.92 |
| EAEEEELRAELTKVEEEIVHLRQV [T20H] | 3.56 |
| EAEEEELRAELTKVEEEIVSLRQV [T20S] | 3.56 |
| EAEEEELRAELTKVEEEIVCLRQV [T20C] | 3.46 |
| EAEEEELRAELTKVEEEIVYLRQV [T20Y] | 2.77 |
| EAEEEELRAELTKVEEEIVKLRQV [T20K] | 3.44 |
| EAEEEELRAELTKVEEEIVELRQV [T20E] | 3.84 |
| EAEEEELRAELTKVEEEIVQLRQV [T20Q] | 4.04 |
| EAEEEELRAELTKVEEEIVRLRQV [T20R] | 3.3 |
| EAEEEELRAELTKVEEEIVVLRQV [T20V] | 3.92 |
| EAEEEELRAELTKVEEPIVTLRQV [E17P] | 4.66 |
| EAEEEELRAELTKVEETIVTLRQV [E17T] | 4.63 |
| EAEEEELRAELTKVEERIVTLRQV [E17R] | 4.62 |
| EAEEEELRAELTKVEEYIVTLRQV [E17Y] | 2.35 |
| EAEEEELRAELTKVEESIVTLRQV [E17S] | 4.29 |

| Variant | protein stability index |
| --- | --- |
| EAEEEELRAELTKVEEWIVTLRQV [E17W] | 2.28 |
| EAEEEELRAELTKVEEVIVTLRQV [E17V] | 4.05 |
| EAEEEELRAELTKVEEQIVTLRQV [E17Q] | 3.86 |
| EAEEEELRAELTKVEEEMVTLRQV [I18M] | 5.11 |
| EAEEEELRAELTKVEEEFVTLRQV [I18F] | 4.52 |
| EAEEEELRAELTKVEEEPVTLRQV [I18P] | 5.69 |
| EAEEEELRAELTKVEEETVTLRQV [I18T] | 5.19 |
| EAEEEELRAELTKVEEENVTLRQV [I18N] | 4.93 |
| EAEEEELRAELTKVEEEGVTLRQV [I18G] | 5.67 |
| EAEEEELRAELTKVEEEAVTLRQV [I18A] | 5.93 |
| EAEEEELRAELTKVEEEKVTLRQV [I18K] | 5.19 |
| EAEEEELRAELTKVEEECVTLRQV [I18C] | 4.55 |
| EAEEEELRAELTKVEEESVTLRQV [I18S] | 5.45 |
| EAEEEELRAELTKVEEELVTLRQV [I18L] | 3.92 |
| EAEEEELRAELTKVEEEEVTLRQV [I18E] | 5.86 |
| EAEEEELRAELTKVEEEQVTLRQV [I18Q] | 5.41 |
| EAEEEELRAELTKVEEERVTLRQV [I18R] | 5.71 |
| EAEEEELRAELTKVEEEDVTLRQV [I18D] | 5.66 |
| EAEEEELRAELTKVEEEWVTLRQV [I18W] | 5.09 |
| EAEEEELRAELTKVEEEVVTLRQV [I18V] | 5.35 |
| EAEEEELRAELTKVEEEHVTLRQV [I18H] | 5.24 |
| EAEEEELRAELTKVEEEYVTLRQV [I18Y] | 5.12 |

— the supplement of paper PMC10567573
